A value given as a limit tells only on which side of the number the result lay.

By Kd is commonly meant the equilibrium constant for the complex coming apart. Read a low Kd as a tighter complex. For orientation: koff means the first-order rate constant of dissociation. Usually stoichiometry N stands for the number of molecules, sites or subunits per partner or assembly.

Experiment [1] addresses 5C4 IgG. Description: flow cytometry on cells. The following applies: full-length pre-F variants expressed in Expi293 cells, read off a plot. In general terms: A flow cytometer gives signals particle by particle.
The target in experiment [2] is D25 IgG. The experiment in a line: flow cytometry on cells. The conditions noted are these: full-length pre-F variants expressed in Expi293 cells, read off a plot.
The target of experiment [3] is 5C4 IgG. Description: flow cytometry on cells. The following applies: full-length pre-F variants expressed in Expi293 cells; parent: est. 0.04; read off a plot.
Experiment [4] has as its target D25 IgG. The experiment in a line: flow cytometry on cells. The conditions noted are these: full-length pre-F variants expressed in Expi293 cells; parent: est. 0.14; read off a plot.
In experiment [5] the target is full-length RSV F (TM, residues 1–574) from strain 18537 with the DS-Cav1 prefusion-stabilizing mutations (respiratory syncytial virus subtype B, strain 18537) (UniProt P13843).
In experiment [6] the target is prefusion-stabilized RSV F strain A2 (DS-Cav1). Description: SPR.
Experiment [7] has as its target RSV F (+) FdTHS based on strain A2 (wild-type A2 RSV F ectodomain fused to a C-terminal trimerization motif) (respiratory syncytial virus subtype A, strain A2) (UniProt Q4KRW9). Description: crystal structure; 5C4 Fab co-expressed with RSV F (+) FdTHS in Expi293, complex purified (Ni-NTA, Strep-Tactin, thrombin, Superose 6); crystal from 0.2 M ammonium acetate, 0.1 M Bis-Tris pH 6.5, 25% PEG 3350; 3.4 Å.

For the substance “full-length RSV F (TM, residues 1–574) from strain 18537 with the DS-Cav1 prefusion-stabilizing mutations (from UniProt P13843) N201A”, the other: Relative binding (fractional binding relative to motavizumab) worked out at 0.01 with 5C4 IgG [1] (parent: est. 0.005) and 0.003 with D25 IgG [2] (parent: est. 0.14).
On to “full-length RSV F (TM, residues 1–574) from strain 18537 with the DS-Cav1 prefusion-stabilizing mutations (from UniProt P13843) N201K”, for which the other: Relative binding (fractional binding relative to motavizumab) in the experiment with 5C4 IgG [3] is 0.52; with D25 IgG [4], 0.35; with 5C4 IgG [1] (parent: est. 0.005), 0.44; in the experiment with D25 IgG [2] (parent: est. 0.14) it was 0.35.
Regarding “full-length RSV F (TM, residues 1–574) from strain 18537 with the DS-Cav1 prefusion-stabilizing mutations (from UniProt P13843) N200D”, the figures for the other: Relative binding (fractional binding relative to motavizumab) with 5C4 IgG [3] and with D25 IgG [4] were 0.01 and 0.33, respectively.
“full-length RSV F (TM, residues 1–574) from strain A2 with the DS-Cav1 prefusion-stabilizing mutations A74T”: the other: Relative binding (fractional binding relative to motavizumab) was 0.7 with 5C4 IgG [1] (parent: est. 0.75) and 0.68 in the experiment with D25 IgG [2] (parent: est. 0.69).
For “full-length RSV F (TM, residues 1–574) from strain A2 with the DS-Cav1 prefusion-stabilizing mutations K201A”, the other: Relative binding (fractional binding relative to motavizumab) worked out at 0.02 in the experiment with 5C4 IgG [1] (parent: est. 0.60) and 0.64 with D25 IgG [2] (parent: est. 0.63).
On to “full-length RSV F (TM, residues 1–574) from strain 18537 with the DS-Cav1 prefusion-stabilizing mutations (from UniProt P13843) T74A”, for which the other: Relative binding (fractional binding relative to motavizumab) with 5C4 IgG [3] turned out to be 0.01; with D25 IgG [4], 0.13.
“full-length RSV F (TM, residues 1–574) from strain A2 with the DS-Cav1 prefusion-stabilizing mutations K209Q”: the other: Relative binding (fractional binding relative to motavizumab) with 5C4 IgG [1] (parent: est. 0.75) was 0.61; with D25 IgG [2] (parent: est. 0.69), 0.54.
In the case of “full-length RSV F (TM, residues 1–574) from strain 18537 with the DS-Cav1 prefusion-stabilizing mutations (from UniProt P13843) T67N”, the results for the other: Relative binding (fractional binding relative to motavizumab) with 5C4 IgG [3] and with D25 IgG [4] were 0.15 and 0.53, respectively.
In the same order, the values of “full-length RSV F (TM, residues 1–574) from strain 18537 with the DS-Cav1 prefusion-stabilizing mutations (from UniProt P13843) Q209K” are 0.19 and 0.58.
Substance 5C4 IgG (antibody) gave an EC50 of 5C4 neutralisation of mKate-RSV B strain 18537 wild-type virus on HEp-2 cells (viral F without DS-Cav1; antibody format not given) in experiment [5] of 9.15 µg/mL.
With “full-length RSV F (TM, residues 1–574) from strain A2 with the DS-Cav1 prefusion-stabilizing mutations D200N”, the other: Relative binding (fractional binding relative to motavizumab) in the experiment with 5C4 IgG [1] (parent: est. 0.75) was 0.74; with D25 IgG [2] (parent: est. 0.69), 0.67.
As for “full-length RSV F (TM, residues 1–574) from strain 18537 with the DS-Cav1 prefusion-stabilizing mutations (from UniProt P13843) N201R”, the figures for the other: Relative binding (fractional binding relative to motavizumab) with 5C4 IgG [1] (parent: est. 0.005) and with D25 IgG [2] (parent: est. 0.14) were 0.4 and 0.01, respectively.
As to “full-length RSV F (TM, residues 1–574) from strain A2 with the DS-Cav1 prefusion-stabilizing mutations S213R”, the other: Relative binding (fractional binding relative to motavizumab) was 0.7 in the experiment with 5C4 IgG [1] (parent: est. 0.75) and 0.65 in the experiment with D25 IgG [2] (parent: est. 0.69).
Consider “full-length RSV F (TM, residues 1–574) from strain A2 with the DS-Cav1 prefusion-stabilizing mutations K201R”, for which the figures for the other: Relative binding (fractional binding relative to motavizumab) in the experiment with 5C4 IgG [1] (parent: est. 0.60) and in the experiment with D25 IgG [2] (parent: est. 0.63) were 0.61 and 0.64, respectively.
In the case of “full-length RSV F (TM, residues 1–574) from strain A2 with the DS-Cav1 prefusion-stabilizing mutations Q202R”, the other: Relative binding (fractional binding relative to motavizumab) with 5C4 IgG [1] (parent: est. 0.75) was found to be 0.73; with D25 IgG [2] (parent: est. 0.69) it was 0.63.
Regarding “full-length RSV F (TM, residues 1–574) from strain A2 with the DS-Cav1 prefusion-stabilizing mutations K201N”, the other: Relative binding (fractional binding relative to motavizumab) with 5C4 IgG [1] (parent: est. 0.60) was found to be 0.012; in the experiment with 5C4 IgG [1] (parent: est. 0.75) it was 0.01; with D25 IgG [2] (parent: est. 0.63), 0.64; in the experiment with D25 IgG [2] (parent: est. 0.69) it was 0.67.
With “full-length RSV F (TM, residues 1–574) from strain 18537 with the DS-Cav1 prefusion-stabilizing mutations (from UniProt P13843) R213S”, the other: Relative binding (fractional binding relative to motavizumab) stood at 0.01 in the experiment with 5C4 IgG [3] and 0.05 in the experiment with D25 IgG [4].
Take “full-length RSV F (TM, residues 1–574) from strain A2 with the DS-Cav1 prefusion-stabilizing mutations N67T”: the other: Relative binding (fractional binding relative to motavizumab) with 5C4 IgG [1] (parent: est. 0.75) was 0.6; in the experiment with D25 IgG [2] (parent: est. 0.69), 0.61.
On to “full-length RSV F (TM, residues 1–574) from strain 18537 with the DS-Cav1 prefusion-stabilizing mutations (from UniProt P13843) R202Q”, for which the results for the other: Relative binding (fractional binding relative to motavizumab) with 5C4 IgG [3] and with D25 IgG [4] were 0.01 and 0.37, respectively.
In the case of D25 Fab, in experiment [6], the Kd is below 76.9 pM and the koff was below 1e-05 s⁻¹.
On to “RSV F (+) FdTHS based on strain A2 (wild-type A2 RSV F ectodomain fused to a C-terminal trimerization motif) (from UniProt Q4KRW9 1-391) (complex)”, for which the stoichiometry N in experiment [7] worked out at 3.

The values above are taken from article PMC5707411.
